This is an account of results in publication PMC9083827.

Where “and” joins values, the source holds several entries; their conditions need not be identical. Identical values can stand only once.

The assay concerns the target TraB_(31-110) (plasmid pIP501 (originally isolated from Streptococcus agalactiae, mainly found in Enterococci)). Put plainly: cross-linking; 10 µg TraB_(31-110) in 50 µl with 0/0.001/0.01/0.05/0.1% glutaraldehyde in 50 mM Bicine, 150 mM NaCl, 1 mM DTT, 20 min at room temperature; Tween-20 micelles; SDS-PAGE.

On to TraB_(31-110) (domain or fragment), for which the stoichiometry N is 2 and 4.
